From the Human Domainome abundance scans (Beltran et al. 2025)

B1: CD2-associated protein, residues 1 to 59; numbered along this chain, Q9Y5K6 (parent)
chain: MVDYIVEYDYDAVHDDELTIRVGEIIRNVKKLQEEGWLEGELNGRRGMFPDNFVKEIKR

Variants of: B1
Assay: abundance fitness (aPCA) (normalised: wild type 0, dead -1); higher = more abundant; growth selection in yeast, the domain comes from the species named
Details: Homo sapiens

Abundance fitness: each site, then its substitutions
E7: Y -0.18 | R -0.087 | P -0.697 | V 0.008 | T 0.028 | Q -0.131 | S -0.212 | A -0.135 | I 0.025 | L -0.004 | D -0.256 | N -0.311 | H -0.581
H14: W -0.455 | P -0.946 | L -0.217 | R 0.021 | Q -0.086 | N 0.09 | K 0.088 | E -0.016 | G -0.031 | A -0.113 | V -0.186 | C 0.152 | T -0.001 | D -0.113
L18: F -0.846 | S -0.651 | A -0.683 | M -0.244 | V -0.499 | Y -0.904 | R -0.504 | K -0.737 | C -0.661
A12: V -1.02 | I -0.782 | D -0.846 | N -0.618 | E -0.435 | T -0.716 | Y -1.05 | K -0.205 | Q -0.349 | H -0.924 | P -0.591 | C -0.35 | W -0.942 | S -0.157 | L -1.12 | R -0.416 | M -0.842
Y8: H 0.148 | F 0.078 | I 0.184 | M -0.261 | L -0.047 | E -0.02 | R 0.097 | P -0.918 | K 0.057 | Q 0.04 | A 0.002 | G -0.026 | W -0.139 | D -0.197 | T 0.123 | V -0.154 | C 0.096 | S 0.013
E17: Y -0.736 | F -0.466 | C -0.407 | G -0.34 | M -0.534 | D -0.13 | A -0.628 | V -0.747 | L -0.882 | R -0.567 | T -0.461 | Q 0.146 | N -0.421
T19: R -0.66 | N -0.224 | K -0.464 | P -0.685 | G -0.792 | L -0.682 | W -0.929 | C -0.384 | D -0.36 | A -0.756 | Y -0.846 | I -0.753 | F -0.841 | M -0.713 | S -0.033 | H -0.399 | Q -0.498
D9: G -0.242 | R -0.417 | L -0.92 | C -0.671 | V -0.77 | T -0.725 | A -0.091 | S -0.172 | N -0.276 | K -0.369 | E -0.346
I20: M -0.019 | L -0.014 | P -0.762 | V -0.225 | C -0.292 | N -0.792 | S -0.743 | A -0.546 | D -0.933 | F -0.373 | W -0.736
D16: M -0.073 | W -0.08 | N 0.001 | Q -0.12 | C 0.229 | P -0.434 | F -0.297 | E -0.115 | A -0.045 | S -0.036 | T 0.005 | K -0.095 | Y 0.03 | G -0.069 | V -0.088 | L -0.13
V13: R -0.149 | Q -0.268 | S 0.067 | K -0.074 | H -0.358 | E -0.058 | P -0.726 | L -0.188 | M -0.058 | N -0.164 | Y -0.328 | G -0.046 | T -0.275 | I -0.431 | W -0.197 | F -0.354
V6: F -0.483 | A -0.08 | R -0.875 | P -1.2 | G -0.438 | T -0.367 | S -0.363 | N -1.04 | Y -0.52 | E -0.96 | K -0.579 | M -0.795 | H -0.832
Y10: Q -1.18 | W -0.037 | V -1.06 | D -0.473 | E -0.787 | R -0.014 | I -0.812 | S -0.999 | L -0.782 | H -0.257 | N -0.599 | P -0.904 | G -0.671 | C -0.569 | K -0.322 | A -0.787 | M -0.667 | T -0.878
D11: V -0.002 | N -0.086 | Y -0.242
M1: L 0.015 | T -0.228 | R -0.083 | V -0.153 | E -0.276 | S 0.072 | C -0.28 | Y -0.375 | I 0.078 | W -0.163 | H -0.209 | F -0.137 | Q -0.301 | A 0.05 | G -0.14 | N -0.425 | K 0.142
G23: W -0.955 | L -1.17 | Y -0.522 | N -0.581 | K -0.383 | M -0.918 | I -0.739 | P -1.04 | Q -0.557 | S -0.651 | V -0.844 | R -0.856 | A -0.911 | C -0.831 | T -0.755
V22: R -0.082 | Y -0.301 | W -0.703 | I -0.273 | M -0.52 | H -0.201 | E 0.115 | G -0.02 | A 0.16 | S -0.09 | F -0.17 | C -0.304 | L -0.438 | T -0.067
I5: P -0.979 | C -0.343 | A -0.544 | E -0.267 | L -0.105 | T -0.335 | Q 0.037 | M 0 | V -0.097 | N -0.681 | R -0.128 | G -0.704 | D -0.556 | S -0.317
Y4: I -0.844 | V -0.042 | L -0.476 | Q -0.687 | A -0.254 | K -0.486 | R -0.404 | C -0.173 | T -0.136 | P -0.863 | D -0.826 | W -0.166 | M -0.086 | H -0.554
R21: T -0.593 | M -0.713 | A -0.826 | H -0.161 | Q -0.414 | N -0.827 | L -0.358 | Y -1 | S -0.433 | V -0.755 | P -0.793 | K -0.28 | C -0.284
E24: M -0.387 | T -0.449 | F -0.338 | D 0.321 | Q -0.263 | N -0.412 | G -0.341 | R -0.687 | C -0.625
V2: T -0.095 | Y -0.166 | A -0.074 | E -0.031 | R -0.084 | L -0.087 | N 0.064 | F 0.008 | H -0.486 | K 0.086 | W -0.138 | C -0.062 | M 0.087 | I 0.054 | S -0.029 | Q -0.224 | D -0.119
D15: C -0.284 | V -0.038 | Q -0.008 | I -0.415 | P -0.13 | F -0.325 | E 0.002 | Y -0.204 | H -0.078 | W -0.453 | A -0.011 | M -0.305 | S -0.098 | L -0.142 | K -0.078 | R -0.146 | G -0.051
D3: L -0.267 | Q -0.188 | M -0.135 | K -0.297 | S -0.048 | V -0.379 | R -0.255 | H -0.188 | N 0.012 | E 0.014 | I -0.453 | G -0.437 | P -0.436 | C -0.237 | A -0.232
